Source: PMC10994351
Values belong to the substance of their own block, whether it stands above or below them.

Columns and labels:
[1] = target: wild-type myristoylated Arf1 (WT myrArf1) (human) (UniProt P84077)
[F13A]myrArf1 (human) = [F13A]myrArf1 (human) (UniProt P84077)
[L8K]myrArf1 (human) = [L8K]myrArf1 (human) (UniProt P84077)
[2] = target: [L8A/F13A]myrArf1 (human) (UniProt P84077)
[L8A]myrArf1 (human) = [L8A]myrArf1 (human) (UniProt P84077)

C50 (nM) of the GAP assay: ARAP1 PPZA needed for 50% of maximum hydrolysis of [alpha-32P]GTP bound to myrArf1, LUVs with PIP3, 30°C, 3 min [1]: 0.14 nM
C50 (nM) of the GAP assay: ARAP1 PPZA needed for 50% of maximum hydrolysis of [alpha-32P]GTP bound to myrArf1, LUVs with PIP3, 30°C, 3 min ([F13A]myrArf1 (human)): 210 nM
Substance: tandem PH domains, Arf GAP, and ankyrin repeats of ARAP1 (PPZA construct), His-tagged (domain or fragment)

C50 (nM) of the GAP assay: full-length AGAP1 needed for 50% of maximum hydrolysis of [alpha-32P]GTP bound to myrArf1, LUVs with PIP2, 30°C, 3 min [1]: 1.6 nM
C50 (nM) of the GAP assay: full-length AGAP1 needed for 50% of maximum hydrolysis of [alpha-32P]GTP bound to myrArf1, LUVs with PIP2, 30°C, 3 min ([F13A]myrArf1 (human)): 340 nM
Substance: full-length AGAP1, His-tagged (from UniProt Q9UPQ3 1-857) (enzyme)

C50 (nM) of the GAP assay: ASAP1 PZA needed for 50% of maximum hydrolysis of [alpha-32P]GTP bound to myrArf1, LUVs with PIP2, 30°C, 3 min [1]: 0.79 nM
C50 (nM) of the GAP assay: ASAP1 PZA needed for 50% of maximum hydrolysis of [alpha-32P]GTP bound to myrArf1, LUVs with PIP2, 30°C, 3 min ([L8K]myrArf1 (human)): 0.84 nM
C50 (nM) of the GAP assay: ASAP1 PZA needed for 50% of maximum hydrolysis of [alpha-32P]GTP bound to myrArf1, LUVs with PIP2, 30°C, 3 min ([F13A]myrArf1 (human)): 2100 nM
C50 (nM) of the GAP assay: ASAP1 PZA needed for 50% of maximum hydrolysis of [alpha-32P]GTP bound to myrArf1, LUVs with PIP2, 30°C, 3 min [2]: 0.7 nM
C50 (nM) of the GAP assay: ASAP1 PZA needed for 50% of maximum hydrolysis of [alpha-32P]GTP bound to myrArf1, LUVs with PIP2, 30°C, 3 min ([L8A]myrArf1 (human)): 0.84 nM
Substance: PH, Arf GAP, and ankyrin repeats (PZA construct) of ASAP1, His-tagged (domain or fragment)
